In US20250186580A1 (TRIDEM BIOSCIENCE, published 2025):

Molecular target: Menveo, Neisseria meningitidis oligosaccharide (A, C, W135, Y) CRM197 conjugate vaccine, without β-glucan … (UniProt P00588 33-567)
Experiment: competitive ELISA, soluble murine Fc-dectin-1a on coated glucan

B1: soluble murine Fc-dectin-1a receptor (InvivoGen) (Fc fusion)
chain: EYGHNSGRNPEEKDNFLSRNKENHKPTESSLDEKVAPSKASQTTGGFSQPCLPNWIMHGKSCYLFSFSGNSWYGSKRHCSQLGAHLLKIDNSKEFEFIESQTSSHRINAFWIGLSRNQSEGPWFWEDGSAFFPNSFQVRNTAPQESLLHNCVWIHGSEVYNQICNTSSYSICEKEL
binding result: no binding
